Experimental data taken from article PMC10465538.

B1: PafA R207A (enzyme)
chain: STVESALTRRIMGIETEYGLTFVDGDSKKLRPDEIARRMFRPIVEKYSSSNIFIPNGSRLYLDVGSHPEYATAECDNLTQLINFEKAGDVIADRMAVDAEESLAREDIAGQVYLFKNNVDSVGNSYGCHENYLVGRSMPLKALGKRLMPFLITRQLICGAGRIHHPNPLDRGESFPLGYCISQRSDHVWEGVSSATTRSRPIINTADEPHADSHSYRRLHVIVGDANMAEPSIALKVGSTLLVLEMIEADFGLPSLELANDIASIREISRDATGSTLLSLKDGTTMTALQIQQVVFEHASRWLEQRPEPEFSGTSNTEMARVLDLWGRMLKAIESGDFSEVDTEIDWVIKKKLIDRFIQRGNLGLDDPKLAQVDLTYHDIRPGRGLFSVLQSRGMIKRWTTDEAILAAVDTAPDTTRAHLRGRILKAADTLGVPVTVDWMRHKVNRPEPQSVELGDPFSAVNSEVDQLIEYMTVHAESYRS
B2: PafA site 2 triple alanine variant (R137A/R207A/R218A) (enzyme)
chain: STVESALTRRIMGIETEYGLTFVDGDSKKLRPDEIARRMFRPIVEKYSSSNIFIPNGSRLYLDVGSHPEYATAECDNLTQLINFEKAGDVIADRMAVDAEESLAREDIAGQVYLFKNNVDSVGNSYGCHENYLVGASMPLKALGKRLMPFLITRQLICGAGRIHHPNPLDRGESFPLGYCISQRSDHVWEGVSSATTRSRPIINTADEPHADSHSYARLHVIVGDANMAEPSIALKVGSTLLVLEMIEADFGLPSLELANDIASIREISRDATGSTLLSLKDGTTMTALQIQQVVFEHASRWLEQRPEPEFSGTSNTEMARVLDLWGRMLKAIESGDFSEVDTEIDWVIKKKLIDRFIQRGNLGLDDPKLAQVDLTYHDIRPGRGLFSVLQSRGMIKRWTTDEAILAAVDTAPDTTRAHLRGRILKAADTLGVPVTVDWMRHKVNRPEPQSVELGDPFSAVNSEVDQLIEYMTVHAESYRS
B3: CglPafA K106R, K172R, K302R (proteasome accessory factor A from Corynebacterium glutamicum) (enzyme)
chain: STVESALTRRIMGIETEYGLTFVDGDSKKLRPDEIARRMFRPIVEKYSSSNIFIPNGSRLYLDVGSHPEYATAECDNLTQLINFEKAGDVIADRMAVDAEESLAREDIAGQVYLFKNNVDSVGNSYGCHENYLVGRSMPLKALGKRLMPFLITRQLICGAGRIHHPNPLDRGESFPLGYCISQRSDHVWEGVSSATTRSRPIINTRDEPHADSHSYRRLHVIVGDANMAEPSIALKVGSTLLVLEMIEADFGLPSLELANDIASIREISRDATGSTLLSLKDGTTMTALQIQQVVFEHASRWLEQRPEPEFSGTSNTEMARVLDLWGRMLKAIESGDFSEVDTEIDWVIKKKLIDRFIQRGNLGLDDPKLAQVDLTYHDIRPGRGLFSVLQSRGMIKRWTTDEAILAAVDTAPDTTRAHLRGRILKAADTLGVPVTVDWMRHKVNRPEPQSVELGDPFSAVNSEVDQLIEYMTVHAESYRS
B4: PafA site 3 alanine double mutant (R442A, K444A) (enzyme)
chain: STVESALTRRIMGIETEYGLTFVDGDSKKLRPDEIARRMFRPIVEKYSSSNIFIPNGSRLYLDVGSHPEYATAECDNLTQLINFEKAGDVIADRMAVDAEESLAREDIAGQVYLFKNNVDSVGNSYGCHENYLVGRSMPLKALGKRLMPFLITRQLICGAGRIHHPNPLDRGESFPLGYCISQRSDHVWEGVSSATTRSRPIINTRDEPHADSHSYRRLHVIVGDANMAEPSIALKVGSTLLVLEMIEADFGLPSLELANDIASIREISRDATGSTLLSLKDGTTMTALQIQQVVFEHASRWLEQRPEPEFSGTSNTEMARVLDLWGRMLKAIESGDFSEVDTEIDWVIKKKLIDRFIQRGNLGLDDPKLAQVDLTYHDIRPGRGLFSVLQSRGMIKRWTTDEAILAAVDTAPDTTRAHLRGRILKAADTLGVPVTVDWMAHAVNRPEPQSVELGDPFSAVNSEVDQLIEYMTVHAESYRS
B5: PafA K444A (enzyme)
chain: STVESALTRRIMGIETEYGLTFVDGDSKKLRPDEIARRMFRPIVEKYSSSNIFIPNGSRLYLDVGSHPEYATAECDNLTQLINFEKAGDVIADRMAVDAEESLAREDIAGQVYLFKNNVDSVGNSYGCHENYLVGRSMPLKALGKRLMPFLITRQLICGAGRIHHPNPLDRGESFPLGYCISQRSDHVWEGVSSATTRSRPIINTRDEPHADSHSYRRLHVIVGDANMAEPSIALKVGSTLLVLEMIEADFGLPSLELANDIASIREISRDATGSTLLSLKDGTTMTALQIQQVVFEHASRWLEQRPEPEFSGTSNTEMARVLDLWGRMLKAIESGDFSEVDTEIDWVIKKKLIDRFIQRGNLGLDDPKLAQVDLTYHDIRPGRGLFSVLQSRGMIKRWTTDEAILAAVDTAPDTTRAHLRGRILKAADTLGVPVTVDWMRHAVNRPEPQSVELGDPFSAVNSEVDQLIEYMTVHAESYRS
B6: PafA R137A, R218A (enzyme)
chain: STVESALTRRIMGIETEYGLTFVDGDSKKLRPDEIARRMFRPIVEKYSSSNIFIPNGSRLYLDVGSHPEYATAECDNLTQLINFEKAGDVIADRMAVDAEESLAREDIAGQVYLFKNNVDSVGNSYGCHENYLVGASMPLKALGKRLMPFLITRQLICGAGRIHHPNPLDRGESFPLGYCISQRSDHVWEGVSSATTRSRPIINTRDEPHADSHSYARLHVIVGDANMAEPSIALKVGSTLLVLEMIEADFGLPSLELANDIASIREISRDATGSTLLSLKDGTTMTALQIQQVVFEHASRWLEQRPEPEFSGTSNTEMARVLDLWGRMLKAIESGDFSEVDTEIDWVIKKKLIDRFIQRGNLGLDDPKLAQVDLTYHDIRPGRGLFSVLQSRGMIKRWTTDEAILAAVDTAPDTTRAHLRGRILKAADTLGVPVTVDWMRHKVNRPEPQSVELGDPFSAVNSEVDQLIEYMTVHAESYRS
B7: PafA R442A (enzyme)
chain: STVESALTRRIMGIETEYGLTFVDGDSKKLRPDEIARRMFRPIVEKYSSSNIFIPNGSRLYLDVGSHPEYATAECDNLTQLINFEKAGDVIADRMAVDAEESLAREDIAGQVYLFKNNVDSVGNSYGCHENYLVGRSMPLKALGKRLMPFLITRQLICGAGRIHHPNPLDRGESFPLGYCISQRSDHVWEGVSSATTRSRPIINTRDEPHADSHSYRRLHVIVGDANMAEPSIALKVGSTLLVLEMIEADFGLPSLELANDIASIREISRDATGSTLLSLKDGTTMTALQIQQVVFEHASRWLEQRPEPEFSGTSNTEMARVLDLWGRMLKAIESGDFSEVDTEIDWVIKKKLIDRFIQRGNLGLDDPKLAQVDLTYHDIRPGRGLFSVLQSRGMIKRWTTDEAILAAVDTAPDTTRAHLRGRILKAADTLGVPVTVDWMAHKVNRPEPQSVELGDPFSAVNSEVDQLIEYMTVHAESYRS
B8: PafA R218A (enzyme)
chain: STVESALTRRIMGIETEYGLTFVDGDSKKLRPDEIARRMFRPIVEKYSSSNIFIPNGSRLYLDVGSHPEYATAECDNLTQLINFEKAGDVIADRMAVDAEESLAREDIAGQVYLFKNNVDSVGNSYGCHENYLVGRSMPLKALGKRLMPFLITRQLICGAGRIHHPNPLDRGESFPLGYCISQRSDHVWEGVSSATTRSRPIINTRDEPHADSHSYARLHVIVGDANMAEPSIALKVGSTLLVLEMIEADFGLPSLELANDIASIREISRDATGSTLLSLKDGTTMTALQIQQVVFEHASRWLEQRPEPEFSGTSNTEMARVLDLWGRMLKAIESGDFSEVDTEIDWVIKKKLIDRFIQRGNLGLDDPKLAQVDLTYHDIRPGRGLFSVLQSRGMIKRWTTDEAILAAVDTAPDTTRAHLRGRILKAADTLGVPVTVDWMRHKVNRPEPQSVELGDPFSAVNSEVDQLIEYMTVHAESYRS
B9: PafA R137A (enzyme)
chain: STVESALTRRIMGIETEYGLTFVDGDSKKLRPDEIARRMFRPIVEKYSSSNIFIPNGSRLYLDVGSHPEYATAECDNLTQLINFEKAGDVIADRMAVDAEESLAREDIAGQVYLFKNNVDSVGNSYGCHENYLVGASMPLKALGKRLMPFLITRQLICGAGRIHHPNPLDRGESFPLGYCISQRSDHVWEGVSSATTRSRPIINTRDEPHADSHSYRRLHVIVGDANMAEPSIALKVGSTLLVLEMIEADFGLPSLELANDIASIREISRDATGSTLLSLKDGTTMTALQIQQVVFEHASRWLEQRPEPEFSGTSNTEMARVLDLWGRMLKAIESGDFSEVDTEIDWVIKKKLIDRFIQRGNLGLDDPKLAQVDLTYHDIRPGRGLFSVLQSRGMIKRWTTDEAILAAVDTAPDTTRAHLRGRILKAADTLGVPVTVDWMRHKVNRPEPQSVELGDPFSAVNSEVDQLIEYMTVHAESYRS

What follows are binders tested against MtbPanB-Strep (ketopantoate hydroxymethyltransferase) (Mycobacterium tuberculosis) (UniProt P9WIL7).

B1 was tested, and the in vitro pupylation of PanB, reduction against PafA (gel densitometry) was 50 % reduction.

Target: MtbPanB-Strep (ketopantoate hydroxymethyltransferase) (Mycobacterium tuberculosis) (UniProt P9WIL7)
Remark: another data set of the same source

In the case of B2, the in vitro pupylation of PanB, reduction against PafA (gel densitometry) is reported as 70 % reduction.

What follows are binders tested against MtbFabD3KR-Strep (malonyl CoA-acyl carrier protein transacylase variant that lacks secondary pupylation sites) (Mycobacterium tuberculosis) (UniProt P9WNG5).

Point of comparison: B5, App. initial pupylation rate (in vitro pupylation of FabD, SDS-PAGE densitometry) 2.65 h⁻¹. Against it:
- B3 — higher, 10.4 h⁻¹
- B4 — lower, 2.64 h⁻¹
- B6 — lower, 0.17 h⁻¹
- B7 — higher, 2.87 h⁻¹
- B8 — higher, 5.05 h⁻¹
- B9 — higher, 3.1 h⁻¹
